Experimental data as given in the RNAGym collection of RNA variant scans (doi:10.1073/pnas.2313332121).

B1: TPR t1 (parent)
chain: GACCAAUCUGCCCUCAGAGCUCGAGAACAUCUUCGGAUGCAGAGGAGGCAGGCUUCGGUGGCGCGAUAGCGCCAACGUCCUCAACCUCCAAUGCAUCCCACCACAUGAUGAUGCCUGAAGAGCCUUGGUUUUUUG

Variants of: B1
Experiment: polymerase ribozyme fitness, log enrichment relative to wild type (log ratio); higher = more active; in vitro selection for triplet polymerase activity
In short: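 Fitness compares each genotype's enrichment to that of the wild type on a logarithmic scale, averaging replicates with inverse-variance weights. The logarithm is base 2. Enrichment came from Illumina sequencing of input and output libraries after one triplicate round of in vitro selection, which included frozen incubation at −7 °C, of PCR-built, transcribed mutant libraries of each subunit of a heterodimeric triplet polymerase ribozyme. Only genotypes with ≥10 input reads and ≥1 read per output were kept.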

Point of comparison: GACCAAUCUGCCCUCAGAGCUCGAGAACAUCUUCGGAUGCAGAGGAGGCAGGCUUAGGUGGCGCGAUAGCGCCAACGUCCACAACCUCCAAUGCAUCCCACCACAUGAUGAUGCCUAAAGAGCCUUGGUUUUUUG, “polymerase ribozyme fitness (log ratio)” value -1.94. Against it:
- GACCAAUCUGCCCUCAGAGCUCGAGAACAUCUUCGGAUGCAGAGGAGGCAGGCUUCGGUGGCGCGAUAGCGCCAACGUACUCAACCUCCAACGCAUCGCACCAAAUGAUGAUGGCUGAAGAGCCUUGGUUUUUUG — lower, -7.71
- GACCAAUCUGGCUUCAGAGCUCGAGAACAUCUUCGGAUGCAGAGGAGGCAGGCUUCGGUGGCGCGAUAGCGCCAACGUCCUCAACCUCCAAUGCAUCCCAGCACAUGAUGAUGCCUGAAGAGCCUUGGUUUUUUG — higher, -1.63
- GACCAAUCUGCCCUCAGAGUUCGAGAACAUCUUCGGAUGCAGAGGAGGCAGGCUUCGGUGGCGCGAUAGUGCCAACGUCCUCAACCUCCAAUGCGUCCCACCACAUGAUGAUGCCUGAAGAGCCUUGGUUUUUUG — within 0.2 log units, -1.86
- GACCAAUCUGCCCUCAGAGCUCGAGAACAUCUUCGGAUGCAGAGGAGGCAGGCUUCGGUGGCGCGAUAGUGCCAACGUACUCAACCUCCAAUGCAUCCCACCACAUGAUGAUGCCUGAAGAGCCUUGGUUUUUUG — within 0.2 log units, -2.03
- GACCAAUCUGCCCUCAGAGCUCGAGAACAUCUUCGCAUGCAGAGGAGGCAGGCUUCGCUGGCGCGAUAGCGCCAACGUCCUCAACCUCCAAUGCAUCCCAGCACAUGAUGUUGCCUGAAGAGCCUUGGUUUUUUG — lower, -5
- GACCAAUCUGCCCUCAGAGCUCGAGAACAUCUUCGGAUGCAGAGGAGGCUGGCUUCGGUGGCGUGAUAGCGACAACGUACUCAACCUCCAAUGCAUCCCAACACAUGAUGAUGCCUGAAGAGCCUUGGUUUUUUG — lower, -5.1
- GACCAAUCUGCCCUCAGAGCUCGAGAACAUCUUCGGAUGCAGAGGAGGCAUGCUUCGGUGGCGUGAUAGCGCCAACGUCCUCAACCUCCAAUGCAUCCCACCACAUGAUGAUGCCUAAAGAGCCUUGGUUUAUUG — lower, -5.22
- GACCGAUCUGCCCUCAGAGCUCGAGAACAUCUUCGGAUGCAGAGGAGGCAGGCUUCGGUGGCGCGAUAGCGCCAACGUCCUUAACCUCCAAUGCAUCCCACCACAUGAUGAUGCCUGAAGAGCCUUGGUUUUUUG — higher, -0.0686
- GACCAAUCUGCCCUCAGAGCUCGAGAACAUCUUCGGAUGCAGAGGAGGCAGGCUUCGGUGGCGCGAUAGUGCCAACGUCCUCAACCUCCAAUCCAUCCCACCACAUGAUGAUGCUUGAAGAGCCUUGGUUUUUUG — lower, -3.35
- GACCAAUCUGCUCUCAGAGCUCGAGAACAUCUUCGGAUGCAGAGCAGGCAGGCUUCGGUGGCGCGAUAGCGCCAACGUCCUCAACCUCCAAUGCAUCCCACAACAUGAUGAUGCCUGAAGAGCCUUGGUUUUUUG — lower, -2.34
- GACCAAUCUGCCCUCAGAGCUCGAGAACAUCUUCGGAUGCAGAGGAGGCAGGCUUCGGUGGCGCGAUAGCGCCAACGACCUCAACCUCCAAUGUAUCCCACCACAUGAUGAUGCAUGAAGAGCCUUCGUUUUUUG — higher, -1.41
- GACCAAUCUGCCCUCAGCGCUCGAGAACAUCUUCGGAUGCAGAGGAGGCAGGCUUCGGUGGCGCGAUAGCGCCAACGUCCUCAACCUCCAAUGCAUCCCACCAAAUGAUGAUGCCUGAAGAGCCUUGGUUUUUUG — lower, -4.52
- GACCAAUCUGCCCUCAGAGCUCGAGAACAUCUUCGGAUGCAGAGGAGGCAGGCUUCGGUGGCGCGGUAGCGCCAACGUCCUCAACCACCAAUGCAUCCUACCACAUGAUGAUGCCUGUAGAGCCUUGGUUUUUUG — lower, -4.99
- GACCAAUCUGCCCUCAGAGCUCGAGAACAUCUUAGGAUGCAGAGGAGGCAGGCUUCGGUGGCGCGAUAGCGCCAACGCCCUCAACCUUCAAUGCAUCCCACCACAUGAUGAUGCCUGAAGAGCCUUGGUUUUUUG — within 0.2 log units, -1.84
- GACCAAUCUGCCCUCAGAGCUCGAGAACAUUUUCGGAUGCAGAGGAGGCAGGCUUCGGUGGCGCGAUAGCGCCAACGUCCUCAACCUCCAAUGCAUCCCACCACAUGAUGAGGCCUGAAGAGCCUUGGUUUUUUG — lower, -4.94
- GACCAAUCUGCCCUCAGAGCUCGAGAACAUCUUCGGGUGCAGAGCAGGCAGGCUUCGGUGGCGCGAUAGCGCCAACGUCCUCAACCUCUAAUGCGUCCCACCACAUGAUGAUGCCUGAAGAGCCUUGGUUUUUUG — lower, -5.88
- GACCAAUCUGCCCUCAGAGCUCGAGAACAUCUUGGGAUGCAGAGGAGGCAGGCUUCGGUGGCGCGAUAGCGCCAACGUCCUCAACCUCCAAUGCAUCCCACCACAUGAUGAUGCCUCAAGAGCAUUGGUUUUUUG — lower, -6.44
- GACCAAUCUGCCUUCAGAGCUCGAGAACAUCUUCGGAUGCAGAGGAGGCGGGCUUCGGUGGCGCGAUAGCGCCAACGUCCUCAAGCUCCAAUGCAUCCCACCACAUGAUGAUGCCUGAAGAGGCUUGGUUUUUUG — higher, -0.185
- GACCAAUAUGCCCUCAGAGCACGAGAACAUCUUGGGAUGCAGAGGAGGCAGGCUUCGGUGGCGCGAUAGAGCCAACGUCCUCAACCUCCAAUGCAUCCCACCACAUGAGGAUGCCUGAAGAGCCUUGGUUUUUUG — lower, -5.88
- GACCAAUCUGCGCUUAGAGCUCGAGAACAUCUUCGGAUGCAGAGGAGGCAGGCUUCGGUGACGCGAUAGCGCCAACGUCCUCAACCUCCAAUGCAUCCCACCACAUGAUGAUGCCUGAAGAGCCUUGGUUUUUUG — higher, -0.982
- GACCAAUCUGCCCUCAGAGCUCGAGAACAUCUUCGGAUGCAGAGGAGGCAGGCUUCGGUGGCGCGAUAGCGCCAACGUCCUCAACCUCCAAUGCAUCCCACCACAUGAUGAUGCCUAACCAACCUUGGUUUUGUG — lower, -3.42
- GACCAAUCUGCCCUUAGAGCUCGAGAACAUCUUCGGAUGCAGAGGAGGCAGUCUUCGGUGGCGCGAUAGCGCCAACGUCCUCAACCUCCAAUGCAUCCCACCACAUGAUGAUGCCUGAAGAGCCUUGGUUUUUUG — lower, -2.36
- GACCAAUCUGCCCUCAGAGCUCGAGAACAUCUUCGGAUGCAGAGGAGGCAGGCUUCGGUGGCGCGAUAGCCCCAACGUCCUCAACCUCCAAUGCACCCCACCACAUGAUGAUGCCUGAAGAGCCUUAGUUUUUUG — lower, -3.25
- GACCUAUCUGCCCUCAGAGCUCGAGAACAUCUUCGGAUGCAGAGGAGGCAGGCUUCGGUGCCGCGAUAGCGCCAACGUCCUCAACCUACAAUGCAUCCCACCACAUGAUGAUGCCUGAAGAGCCUUGGUUUUUUG — lower, -2.27
- GACAAAUCUGCCCUCAGAGCUCGAGAACAUCUUCGGAUGCAGAGGAGGCAGGCUUCGGUGGCGCGAUAGCGCCAACGUCCUCAACCUCCAAUGCUUCCCACCACAUGAUGAUGCCUGAAGAGCCUUGGUUUUUUG — higher, -1.38
- GACCAAGCUGCCCUCAGAGCUCGAGAACAUCUUCGGAUGCAGAGGCGGCAGGCUUCGGUGGCGCGAUCGUGCCAACGUCCUCAACCUCCAAUGCAUUCCACCACAUGAUGAUGCCUGAAUAGCCUUUGUUUUUUG — lower, -5.43
- GACCAAUCUGCCUUCAGAGCUCGAGAACGUCUUCGGAUGCAGAGGAGGCAGACUUCGGUGGCGCGAUAGCGCCAACGUCCUCAACCUCCAAUGCAUCCCACUACAUGAUGAUGCCUGAAGAGCCUUGGUUUUUUG — lower, -4.34
- GACCAAUCUGCCCUCAGAGCUCGAGAACAUCUUCGGAUGCAGAGGAGGCAGGCUUCGGUGCCGCGAUAGCGCCAACGUCCUCAACCUCCAAUGCAUCCCUCCACAUGAUGGUACCUGAAGAGCCUUGGUUUUUUG — lower, -4.64
- GACCAAUCUGCCCUCAGAGCUCGAGAACAUCUUCGGAUGCAGAGGAGGCAGGCUUCGAUGGCGCGAUAGCGCCAACGUCCUCUACCUCCAAUGCAUCCCACCACAAGAUGAUGCCUGAAGAGCCUUGGUUUUUUG — higher, -1.14
- GACCAAUCUGCCCUCAGAGCUCGAGAACUUCUUCGGAUGCAGAGGAUGCAGGCUUCGGUGGCGCGAUAGCGCCAACGUCCUCAACCUCCAAUGCAUCCCACCACAUGAUGAUGCCUGAAGAGCCUUGGUUUUUUG — lower, -3.05
- GACCAAUCUGCCCUCAGAGCUCGAGGACAUCUUCGGAUGCAGAGGAAGGAGGCUUCGGUGGCGCGAUAGCUCCAACGUCCUCAACCUCCAAUGCAUCCCACCACAUGAUGAUGCCUGAAGAGCCUUGGUUUUUUG — lower, -4.24
- GACCAAUCUGCCCUCAGAGCUCGAGAGCAUCUUCGGAUGCAGAGGAGGCAGGCUUCUGUGGCGCGAUAGCGCCAACGUCCUCAACCUCCAAUGCAUCCCACCACAUGAUGAUGCCUGAAGAGCCUUGGUUUUUUG — lower, -2.3
- GACCAAUCUGCCCUCAGAGCACGAGAACAUCUUCGGAUGCAGAAGAGGCAGGCUUCGGUGGCGCGAUAGCGCCAACGUCCUCAACCUCCAAUGCAUCCCACCACAUGAUGAUGCCUGAAGAGCCUUGGUUUUUUG — higher, -1.07
- GACCAAUCUGCCCUCAGAGCUCGAGAACAUCUUCGGAUGCAGAGGAGGCAGGCUUCGGUGGCGCGAUAGCGCCAACGUCUUCAACCUCCAAUGCAUCCCACCACAUGAUGAUGCCUGAAGAGCCUUGGUUAUUUG — higher, -0.732
- GACCAAUCUGCCCUCCGAGCUCGAGAACAUCUUCGGAUGCAGAGGAGGCAGGCUUCGGUGGCGCGAUAGCGCCAACGUCCUCAACCUCCAAUGCAUCCCACCACAAGAUGAUGCCUGAAGAGCCUUGGUUUUUUG — lower, -2.82
- GACCAAUCUGCCCUCAGAGCUCGAGAACAUCUUCGGAUGCAGAGGAGACAGGCAUCGGUGGUGCGAUAGCGCCAACGUCCUUAAACUCCAAUGCAUCCCACCAAAUGAUGAUGCCUGAAGAGCCUUGGUUUUUUG — lower, -2.99
- GACCAAUCUGCCCUCAGAGCUCGAGAACAUCUUCGGAUGCAGAGGAGGCAGGCUUCGGUGACGCGAUAGCGCCUACGUCCUCAACCUCCAAUGCAUCCCACCACAUGAUUAUGCCUGGAGAGCCUUGGUUUUUUG — lower, -4.67
- GACCAAUCUGCCCUCAGAGCUCGAGAACAUCUUCGGAUGCAGAGGAGGCAGGCUUCGGUGGCGCGAUAGCGCCAACGUCCUCAACCUCCAAUUCAUCCCACCACAUGAUGGUGCCUGAAGAGCCUUGGUUUUUUG — higher, -0.352
- GACCAAUCUGCGCUCAGAGCUCGAGAACAUCUUCGGAUGCACAGGAGGCAGGCUUCGGUGGCGCGAUAGAGCCAACGACCUCAACCUCCAUUGCAUCCCACCACAUGAUGAUGCCUGAAGAGCCUUGGUUUUUUG — lower, -5.9
- GACCAGUCUGCCCUCAGAGCUCGAGAACAUCUUCGGAUGCAGAGGAGGCAGGCUUCGGUGGCGCGAUAGCGUCAACGUCCUCAACCUCCAAUGCAUCCCACCACAUGAUGAUGCCUGAAGAGCCUUGGUUUUUUG — higher, 0.164
- GACCAAUCUGCCCUCAGAGCUCGAGAACAUCUUCGGAUGCAGAGGAGGCAGGCUUCGGUGGCGCGAUAGCACCAACGUCCUCAACCUCCAAUGCAUCCCACCACAUGAUGAUGUCUGAAGAGCCUUGGUUUUUUG — lower, -2.27
